In the supplement of paper PMC9170038:

Tested on: MS2 coat protein
Test: apparent KD of MS2 coat protein; designed switch direction (-1 OFF switch, 1 ON switch): -1; higher = weaker reporter binding
In short: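 The apparent KD reported per design is the median over clusters of curve fits to normalised cluster fluorescence. The RNA switches were transcribed on Illumina chips by stalled E. coli RNA polymerase. SNAP-549-labelled MS2 coat protein was titrated from 0.7 or 1.5 nM, doubling up to 3 µM, in Tris-HCl pH 7.5 buffer containing KCl, MgCl2, BSA, DTT, tRNA and Tween-20, with no input, 200 uM small-molecule ligand, or an oligonucleotide input.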

[1] = Eterna round: R95, input ligand: FMN 200 uM
[2] = Eterna round: R95, input ligand: microRNA oligo, concentration not stated
[3] = Eterna round: R95, input ligand: none
[4] = input ligand: microRNA oligo, concentration not stated

Sequence	apparent KD of MS2 coat protein [2] [µM]	apparent KD of MS2 coat protein (input ligand: FMN 200 uM) [µM]	apparent KD of MS2 coat protein (input ligand: none) [µM]	other results
GUGAUGUAGCACAAUAAGUUUUUUGCCGUCUUAGGUCCAACAUGAGGAUCACCCAUGUACGUCUACAUGCACUUUAA [Veveuslabe] (puzzle: Sensor v3, turn-off variant 2)	0.197			apparent KD of MS2 coat protein [1]: 0.0664 µM; apparent KD of MS2 coat protein [3]: 0.0812 µM
GUGCAACAUGAGGAUCACCCAUGUUAGGAUAUGUCCUUGGAGACGCACUAGCUCUGAGACAGAAGGGACAGAGG [Eternabot (Original) Solution 34] (Eterna round: R97, puzzle: Exclusion 1)		0.0699	0.0512	
GUGCGGUGAGGAUAUACGUAGGUACAGAUCUGUGUGUUCCUACAUGAGGAUCACCCAUGUAGAAGGCAUGGCAC [LRO-Excl2-12] (puzzle: Exclusion 2)	0.0384			
GUGGGACAUGAGGAUCACCCAUGUCAGGAUAUUUGGGCGAGAUUCGAUCUCGUUAGCCGGAGAAGGGACGUAUG [Eternabot (L2) Solution 47] (Eterna round: R97, puzzle: Exclusion 1)		0.0347	0.025	
GUGGUACAUGAGGAUCACCCAUGUCAGGAUAUCGUGUGUUUUUUUUCGGCCGCGCGCGCGAGAAGGGACGUCUU (puzzle: Exclusion 1)	0.0168			
GUGGUACAUGAGGAUCACCCAUGUGAGGAUAUGUCUGUCUGUUGGUUUCGGCGGGCGGGCAGAAGGCGCGUCGC [-27.3, -25.1 kcal, 16% A] (Eterna round: R97, puzzle: Exclusion 1)		0.0341	0.0316	
GUGGUGGGUUUUCCGAGUAACAUGAGGAUCACCCAUGUAGAAGUUGAAGGUAUCAAGCGAAUGGCUCGUCAAAUGUG [JR_SV3TOV1_Sub047] (puzzle: Sensor v3, turn-off variant 1)	0.0175			apparent KD of MS2 coat protein [1]: 0.0423 µM; apparent KD of MS2 coat protein [3]: 0.0464 µM
GUGGUGGGUUUUCCGAGUGACAUGAGGAUCACCCAUGUGUUAGUUUGAGGUAUCAAGCGAAUGGCUCGUCUUAUGUG [JR_SV3TOV1_Sub046] (Eterna round: R96, puzzle: Sensor v3, turn-off variant 1)		0.982	0.623	apparent KD of MS2 coat protein [4]: 0.0447 µM
GUGGUGGGUUUUCCGAGUGACAUGAGGAUCACCCAUGUGUUAGUUUGAGGUAUCAAGCGAAUGGCUCGUCUUAUGUG [JR_SV3TOV1_Sub046] (puzzle: Sensor v3, turn-off variant 1)	0.0212			apparent KD of MS2 coat protein [1]: 0.14 µM; apparent KD of MS2 coat protein [3]: 0.154 µM
GUGUAACUACACGGGCUCAACAUGAGGAUCACCCAUGUCAUACACGCAAGCUUUUUGCUUGUCUUAUCUGUCCGUGA [Raenzama] (puzzle: Sensor v3, turn-off variant 1)	0.0135			apparent KD of MS2 coat protein [1]: 0.0121 µM; apparent KD of MS2 coat protein [3]: 0.0104 µM
GUGUACAGAGGAUAUACUUGAAUCUAGCGAAGCUAGGUUUGACAUGAGGAUCACCCAUGUAGAAGGCUGUACAC [Dot plot directed A v1] (puzzle: Exclusion 2)	0.0137			
GUGUACGGAGGAUAUAUAUGGGCAGGCUGACCUGCAGCUUCACAUGAGGAUCACCCAUGUAGAAGGCUGUGCAC [JL-ex2-2.07 Brourd mod] (puzzle: Exclusion 2)	0.0271			
GUGUACGGAGGAUAUAUGUGGCGAGCAUACGCUCGAGCUUCACAUGAGGAUCACCCAUGUAGAAGGCUGUGCAC [JL-ex2-2.12 Brourd mod] (puzzle: Exclusion 2)	0.0179			
GUGUAGAUAGGAUAUGCGUGAGUCUAGCGAAGCUAGAUUCUACAUGAGGAUCACCCAUGUAGAAGGGUCUACAC [Fiskers Ex 2 - 26] (puzzle: Exclusion 2)	0.0159			
GUGUAGGGAGGAUAUACAUGAGGAUCACCCAUGUGAAUAAGAUAGAAUAAGAUAAAGUGUAGAAGGUCUAGUGU [Excluse me!!! 12 - Jieux - Exclusion 3] (puzzle: Exclusion 3)	0.0527			
GUGUAGGUAGGAUAUACAUGAGGAUCACCCAUGUGAAUAAGAUAGAAUAAGAUAAAGUGUAGAAGGGCUAGUGU [Excluse me!!! 13 - Jieux - Exclusion 3] (puzzle: Exclusion 3)	0.0345			
GUGUGCUGAGGAUAUACAUAGGAAUAGAAUAGAAUAGAAUGACAUGAGGAUCACCCAUGUAGAAGGCAGAGUGU [Excluse me!! 13 - Jieux - Exclusion 2] (puzzle: Exclusion 2)	0.0214			apparent KD of MS2 coat protein [1]: 0.0396 µM; apparent KD of MS2 coat protein [3]: 0.0248 µM
GUGUUGCGAGGAUAUAUAAGGGUAUGUUCUUGAGGUAUGGAACAUGAGGAUCACCCAUGUAGAAGGUGCAUAAC [JR_Ex2_Sub045] (Eterna round: R97, puzzle: Exclusion 2)		0.507	0.247	
GUGUUGUAUGUAGGAUAUGCAUACUGUUAGUAUGCAGAAGGACAUGAGGAUCACCCAUGUAUAUUAUUAUUAUAUAUCAUACAU [MOD of Hoglahoo's Title] (Eterna round: R96, puzzle: Exclusion NG 1)				apparent KD of MS2 coat protein [4]: 0.0152 µM
GUUAACGUAGGAUAUUAGUACAUGCACAUGAGGAUCACCCAUGUUUAGUGGGUCUAGGAAUAAGAAGGGCGAAGAA [EX5 #23] (Eterna round: R97, puzzle: Exclusion 5)		0.17	0.309	
GUUAUGUAAGGAUAUAUGAGUCACGGUGAUACACCGUGAAGAUAGAAGGUACAUGAGGAUCACCCAUGUAAGGC [Mod of Anonveat 10 - Jieux - Exclusion 4] (Eterna round: R97, puzzle: Exclusion 4)		0.0322	0.0254	
GUUAUGUCAGGAUAUGCUAAUGAUGAAUGAUCAGACAUAAUGUAGAAGGGACAUGAGGAUCACCCAUGUAAUAU [EX4 #6] (Eterna round: R97, puzzle: Exclusion 4)		0.0294	0.0233	
GUUAUGUCAGGAUAUGCUAAUGAUGAAUGAUCAGACAUGAUGUAGAAGGGACAUGAGGAUCACCCAUGUAAUAU [EX4 #7] (Eterna round: R97, puzzle: Exclusion 4)		0.0323	0.025	
GUUAUUUAUGUAGGAUAUGCAAGGCGAACCUAAGCAGAAGGACAUGAGGAUCACCCAUGUAUUGCGGUCUGCGUUCAGAUCGCU [salish99_ExNG1_r4_013] (Eterna round: R96, puzzle: Exclusion NG 1)		0.0862	0.022	apparent KD of MS2 coat protein [4]: 0.015 µM
GUUCAGUCAGGAUAUCAAUCCGCCUGUGAUACGCAGGCGGCUGAGAAGGGACAUGAGGAUCACCCAUGUAAAGA [jl-ex4-4.21 ViennaUCT mod] (Eterna round: R97, puzzle: Exclusion 4)		0.0511	0.0371	
